The data set concerns the target T1, Fur (Pseudomonas aeruginosa, UniProt Q03456 1-134).
T1 sequence: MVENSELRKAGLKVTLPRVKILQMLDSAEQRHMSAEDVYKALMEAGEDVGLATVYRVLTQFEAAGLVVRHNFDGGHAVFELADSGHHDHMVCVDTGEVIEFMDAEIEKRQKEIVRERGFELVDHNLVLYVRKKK
Briefly: fluorescence anisotropy. For orientation: In fluorescence polarisation assays a small probe gives low polarisation when free and higher when bound to something large.

As a reminder, the Kd is a measure of binding affinity in units of concentration. Read a low Kd as a tighter complex.

B1: prrF1-30 (dsDNA)
DNA 1: GACATGGAAATGAGAATCATTATTATGTC
DNA 2: GACATAATAATGATTCTCATTTCCATGTC
B1: the Kd was determined as 50 ± 10 nM.

The values above are taken from publication doi:10.1101/2020.11.18.388926.
